Source: patent US20060246095A1, “Multiepitope polypeptides for cancer immunotherapy” (HADASIT MEDICAL RESEARCH SERVICES & DEVELOPMENT LTD., priority 2003, published 2006)

Columns and labels:
[1] = LTB-MEP fusion protein functional assay (GM1 ganglioside ELISA, anti-MEP detection); type: binding; settings: GM1 ganglioside coated plates, chicken anti-MEP antibodies
Description: LTB-MEP fusion protein expressed by the recombinant pQE30-LTB-MEP construct was tested for its ability to bind GM1 ganglioside and anti-MEP antibodies. LTB-MEP fusion protein was incubated in ELISA plates coated with GM1 ganglioside (which binds to native LTB) with chicken anti-MEP antibodies.
Only LTB-MEP molecules with functional LTB and MEP units can be detected by this assay. Boiled LTB-MEP protein losses its capability to bind to GM1 ganglioside and therefore could not be detected.
A BamHI-HindIII fragment encoding for MEP (SEQ ID NO: 1) was attached to a KpnI-HindIII fragment encoding for LTB (SEQ ID NO: 52) through a polynucleotide linker. The ligated product was cloned into pQE30 vector and transformed into E. Coli (JM109 strain). LTB-MEP fusion protein expressed in bacteria, was purified and further characterized by ELISA assay. Ganglioside GM1 coated plates were incubated at 37° C. in the presence of native or boiled LTB-MEP fusion protein, purified LTB and pQE30 DNA expression vector (without insert) molecules. […] LTB molecule is sensitive to temperature and heat treatment destroys its capability to bind to GM1 ganglioside. Since binding detection was performed using chicken anti-MEP antibodies only active LTB-MEP fusion protein could be detected.

DC = DC maturation in vitro (preliminary data); type: cell-based
Excerpt: A non-toxic form of LT (NLT) was produced by the present inventors. […] Thus, NLT and LTB could be developed as a delivery system for the presentation of tumor antigens to the immune system.

B1: Purified LTB (protein)
chain: APQTITELCSEYRNTQIYTINDKILSYTESMAGKREMVIITFKSGETFQVEVPGSQHIDSQKKAIERMKDTLRITYLTETKIDKLCVWNNKTPNSIAAISMKN
OD 450 nm ([1]; treatment 37° C.): 1.05 | OD 450 nm ([1]; treatment Boiled): 0.98 | DC maturation (DC): induce DC maturation in vitro
